Assays:
[1] = biological target: T1, anti-IGF-1R antibody (IgG1 subclass with mutations I253A/H310A/H435A); assay: ELISA assay C, tracer FcγRI-Dig, target 6 ng/mL
T1 construct: Positions are EU numbers; also called sample 3; antibody 3

[2] = biological target: T2, anti-VEGF/ANG2 antibody (IgG1 subclass with mutations P329G/L234A/L235A/I253A/H310A/H435A); assay: ELISA assay C, tracer FcγRI-Dig, target 6 ng/mL
T2 construct: Format of the bispecific antibody not described; Positions are EU numbers, not positions on the UniProt entry; also called sample 1; antibody 1

[3] = biological target: T3, anti-P-Selectin antibody (IgG4 subclass with mutations S228P/L235E); assay: ELISA assay C, tracer FcγRI-Dig, target 6 ng/mL
T3 construct: Positions are EU numbers; also called sample 4; antibody 4

[4] = biological target: T4, anti-VEGF/ANG2 antibody (wild-type IgG1 subclass) (UniProt P01857-1 1-330 = IgG part); assay: ELISA assay C, tracer FcγRI-Dig, target 6 ng/mL
T4 construct: also called sample 5; antibody 5

[5] = biological target: T5, anti-VEGF/ANG2 antibody (IgG1 subclass with mutations P329G/L234A/L235A); assay: ELISA assay C, tracer FcγRI-Dig, target 6 ng/mL
T5 construct: Positions are EU numbers; also called sample 2; antibody 2

[6] = biological target: T1, anti-IGF-1R antibody (IgG1 subclass …); assay: ELISA assay B, tracer M1.7.10-Dig, target 3 ng/mL
Protocol: (§1) Biotinylated anti-PG Fc-region antibody or biotinylated anti-AAA Fc-region antibody, respectively, was bound to the wells of a streptavidin-coated multi-well plate (SA-MTP) to produce a capture plate. Excess of unbound antibody was removed by washing. Sample/standard antibodies spiked in human and cynomolgus monkey serum (10% final concentration) was added to wells of the SA-MTP multi-well plate coated with the capture plate and incubated for 1 hour at room temperature. After washing, the wells were incubated with digoxygenylated anti-human kappa antibody M1.7.10 (see e.g. WO 2011/048043, incorporated herein by reference). After washing the bound digoxygenylated anti-human kappa antibody complex was incubated with a horseradish peroxidase (HRP) labelled anti-digoxygenin antibody. After another washing step, an ABTS solution was added to the wells and incubated. The product of the color reaction was measured by Elisa reader at 405 nm wavelength (reference wavelength: 490 nm). Absorbance values of each sample or standard were determined in triplicates.

[7] = biological target: T2, anti-VEGF/ANG2 antibody (IgG1 subclass …); assay: ELISA assay B, tracer M1.7.10-Dig, target 3 ng/mL
Protocol: as §1

[8] = biological target: T3, anti-P-Selectin antibody (IgG4 subclass …); assay: ELISA assay B, tracer M1.7.10-Dig, target 3 ng/mL
Protocol: as §1

[9] = biological target: T4, anti-VEGF/ANG2 antibody (wild-type IgG1 …); assay: ELISA assay B, tracer M1.7.10-Dig, target 3 ng/mL
Protocol: as §1

[10] = biological target: T5, anti-VEGF/ANG2 antibody (IgG1 subclass …); assay: ELISA assay B, tracer M1.7.10-Dig, target 3 ng/mL
Protocol: as §1

[11] = biological target: T2, anti-VEGF/ANG2 antibody (IgG1 subclass …); assay: ELISA assay C, tracer FcγRI-Dig, target 100 ng/mL
[12] = biological target: T3, anti-P-Selectin antibody (IgG4 subclass …); assay: ELISA assay C, tracer FcγRI-Dig, target 100 ng/mL
[13] = biological target: T4, anti-VEGF/ANG2 antibody (wild-type IgG1 …); assay: ELISA assay C, tracer FcγRI-Dig, target 100 ng/mL
[14] = biological target: T5, anti-VEGF/ANG2 antibody (IgG1 subclass …); assay: ELISA assay C, tracer FcγRI-Dig, target 100 ng/mL
[15] = biological target: T1, anti-IGF-1R antibody (IgG1 subclass …); assay: ELISA assay B, tracer M1.7.10-Dig, target 100 ng/mL
Protocol: as §1

[16] = biological target: T2, anti-VEGF/ANG2 antibody (IgG1 subclass …); assay: as above
Protocol: as §1

[17] = biological target: T3, anti-P-Selectin antibody (IgG4 subclass …); assay: as above
Protocol: as §1

[18] = biological target: T5, anti-VEGF/ANG2 antibody (IgG1 subclass …); assay: as above
Protocol: as §1

[19] = biological target: T1, anti-IGF-1R antibody (IgG1 subclass …); assay: ELISA assay C, tracer FcγRI-Dig, target 13 ng/mL
[20] = biological target: T2, anti-VEGF/ANG2 antibody (IgG1 subclass …); assay: ELISA assay C, tracer FcγRI-Dig, target 13 ng/mL
[21] = biological target: T3, anti-P-Selectin antibody (IgG4 subclass …); assay: ELISA assay C, tracer FcγRI-Dig, target 13 ng/mL
[22] = biological target: T4, anti-VEGF/ANG2 antibody (wild-type IgG1 …); assay: ELISA assay C, tracer FcγRI-Dig, target 13 ng/mL
[23] = biological target: T5, anti-VEGF/ANG2 antibody (IgG1 subclass …); assay: ELISA assay C, tracer FcγRI-Dig, target 13 ng/mL

| Binder | signal [OD405 nm] [1] [OD405 nm] | signal [OD405 nm] [2] [OD405 nm] | signal [OD405 nm] [3] [OD405 nm] | signal [OD405 nm] [4] [OD405 nm] | signal [OD405 nm] [5] [OD405 nm] | signal [OD405 nm] [6] [OD405 nm] | signal [OD405 nm] [7] [OD405 nm] | signal [OD405 nm] [8] [OD405 nm] | signal [OD405 nm] [9] [OD405 nm] | signal [OD405 nm] [10] [OD405 nm] | signal [OD405 nm] [11] [OD405 nm] | signal [OD405 nm] [12] [OD405 nm] | signal [OD405 nm] [13] [OD405 nm] | signal [OD405 nm] [14] [OD405 nm] | signal [OD405 nm] [15] [OD405 nm] | signal [OD405 nm] [16] [OD405 nm] | signal [OD405 nm] [17] [OD405 nm] | signal [OD405 nm] [18] [OD405 nm] | signal [OD405 nm] [19] [OD405 nm] | signal [OD405 nm] [20] [OD405 nm] | other results |
| --- | --- | --- | --- | --- | --- | --- | --- | --- | --- | --- | --- | --- | --- | --- | --- | --- | --- | --- | --- | --- | --- |
| anti-AAA variant Fc-region antibody M1.6.22 (antibody, V domains shown, Murine variable domains; also called M1.6.22-Bi) VH: EVQLVESGGDLVKPGGSLKLSCAASGFTFSSYGMSWVRQTPDKRLEWVATISSGGSYIYYPDSVKGRFTISRDNAKNTLYLQMSSLKSEDTAMYYCARLGMITTGYAMDYWGQGTSVTVSS VL: DVLMTQTPLSLPVSLGDQASISCRSSQTIVHSTGHTYLEWFLQKPGQSPKLLIYKVSNRFSGVPDRFSGSGSGTDFTLKISRVEAEDLGVYYCFQGSHVPYTFGGGTKLEIK | 0.104 | 0.06 | 0.051 | 0.064 | 0.06 | 2.26 | 0.039 | 0.039 | 0.037 | 0.044 | 0.079 | 0.069 | 0.076 | 0.076 | 2.9 | 0.052 | 0.051 | 0.21 | 0.175 | 0.064 | signal [OD405 nm] [21]: 0.052 OD405 nm; signal [OD405 nm] [22]: 0.07 OD405 nm; signal [OD405 nm] [23]: 0.061 OD405 nm |
| anti-PG variant Fc-region antibody M1.3.17 (antibody, V domains shown, Monomeric, bivalent full-length antibody with murine variable domains; Biotinylated when used as capture antibody; also called anti-PG antibody clone 1.3.17; M1.3.17-Bi) VH: EVKLLESGGGLVQPGGSLKLSCAASGIDFRRYWMNWVRQAPGKGLEWIGEIDPDSSTINYTPSLKDKFIISRDNAKNTMYLQMRKVRSEDTALYYCARPYDYGAWFAYWGQGTLVTVSA VL: QAVVTQESALTTSPGETVTLTCRSTTGAVTTSNYANWVQEKPDHLFTGLIGGTNKRAPGVPARFSGSLIGDKAALTITGAQTEDEAIYFCALWYSDHWVFGGGTKLTVL | 1.21 | 1.17 | 1.18 | 1.17 | 1.22 | 0.047 | 0.036 | 0.05 | 0.044 | 0.165 | 1.19 | 1.17 | 1.18 | 1.22 | 0.05 | 0.035 | 0.048 | 0.216 | 1.21 | 1.14 | signal [OD405 nm] [21]: 1.16 OD405 nm; signal [OD405 nm] [22]: 1.17 OD405 nm; signal [OD405 nm] [23]: 1.23 OD405 nm |
| anti-PG variant Fc-region antibody M1.7.24 (monomeric, bivalent) (antibody, V domains shown, Full-length Y-shaped antibody with murine variable domains; Biotinylated when used as capture antibody; also called anti-PG antibody clone 1.7.24; M1.7.24-Bi) VH: EVKLLESGGGLVQPGGSLKLSCAASGFDFSRYWMNWVRQAPGKGLEWIGEITPDSSTINYTPSLKDKFIISRDNAKNTLYLQMIKVRSEDTALYYCVRPYDYGAWFASWGQGTLVTVSA VL: QAVVTQESALTTSPGETVTLTCRSSTGAVTTSNYANWVQEKPDHLFTGLIGGTNKRAPGVPARFSGSLIGDKAALTITGAQTEDEAIYFCALWYSNHWVFGGGTKLTVL | 0.069 | 0.079 | 0.053 | 0.057 | 0.06 | 0.046 | 0.04 | 0.031 | 0.033 | 2.51 | 0.05 | 0.08 | 0.073 | 0.082 | 0.098 | 0.057 | 0.05 | 3.23 | 0.058 | 0.085 | signal [OD405 nm] [21]: 0.066 OD405 nm; signal [OD405 nm] [22]: 0.057 OD405 nm; signal [OD405 nm] [23]: 0.06 OD405 nm |
